The values below come from doi:10.1101/2025.09.26.678488, “Dishevelled drives Wnt-stimulated disassembly of primary cilia through a unique PDZ-mediated binding mode with Daple and Girdin” (bioRxiv, 2025).

No end group written: not given here. *: point of attachment. Lip = lipoyl, O=C(CCCC[C@@H]1CCSS1)*

For assay [1], the target named is T1, Lip-PDZ_(DVL2) (human, UniProt O14641 265-361).
T1 construct: DVL2 (Dishevelled-2), human, PDZ domain, amino acids 265-361; also called His6x-Lip-PDZ; source: E. coli BL21-CodonPlus(DE3)-RIL, purified (Ni-NTA, SEC); not shown: Lipoyl (Lip), N-terminal, kept
T1 sequence (looked up): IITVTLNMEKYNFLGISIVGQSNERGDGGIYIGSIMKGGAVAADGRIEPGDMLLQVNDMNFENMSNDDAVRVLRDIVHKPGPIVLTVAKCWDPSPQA
The assay is described as follows: ITC; 40 μM Lip-PDZ_(DVL2) in the cell, 1.00 mM Lip-PBM_(Daple) or 1.33 mM Lip-PBM_(FZD4) in the syringe; 25°C; 25 mM sodium phosphate pH 6.7, 150 mM NaCl; one set of binding sites; apparent KD. Conditions: both partners purified.

The target of assay [2] is T2, PDZ_(DVL2) V334E cleft mutant (NMR sample) (human, UniProt O14641 265-361, V334E).
T2 construct: DVL2 (Dishevelled-2), human, PDZ domain, amino acids 265-361, V334E; source: E. coli BL21-CodonPlus(DE3)-RIL, purified (Ni-NTA, SEC)
T2 sequence (looked up): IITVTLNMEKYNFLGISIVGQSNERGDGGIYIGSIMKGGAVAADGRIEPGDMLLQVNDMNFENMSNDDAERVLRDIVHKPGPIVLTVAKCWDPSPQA
The assay is described as follows: NMR titration; 1H-15N fHSQC of 100 μM 15N-labelled PDZ_(DVL2) alone or with 150 μM (Daple, Girdin) or 300 μM (FZD4) Lip-tagged PBM peptide; 298 K; chemical shift perturbations and line broadening. The conditions noted are these: both partners purified.

B1: Lip-PBM_(Daple) (C-terminal eight residues of Daple tagged with Lipoyl) (peptide, UniProt Q9P219 2021-2028, looked up)
peptide: Lip-VWYEYGCV
notes: Daple, C-terminal eight residues; the last residue is printed as Val2028, so 2021 is worked out; printed residues: Trp2022, Glu2024, Tyr2025, Gly2026, Cys2027, Val2028; source: E. coli BL21-CodonPlus(DE3)-RIL, purified (Ni-NTA, SEC); not shown: Lipoyl (Lip), N-terminal, kept
Turning to B1, in assay [1], the Kd came to 9.1 µM. The binding result in assay [2] is “binds”.
